How the values were obtained:
Experiment in all cases: IP/MS, LZTR1 R810W-FLAG, U87
FBX038 = target: T1, FBX038 (human, UniProt Q6PIJ6 1-1188, limits assumed)
T1 construct: Printed with a zero; probably FBXO38
T1 sequence (looked up): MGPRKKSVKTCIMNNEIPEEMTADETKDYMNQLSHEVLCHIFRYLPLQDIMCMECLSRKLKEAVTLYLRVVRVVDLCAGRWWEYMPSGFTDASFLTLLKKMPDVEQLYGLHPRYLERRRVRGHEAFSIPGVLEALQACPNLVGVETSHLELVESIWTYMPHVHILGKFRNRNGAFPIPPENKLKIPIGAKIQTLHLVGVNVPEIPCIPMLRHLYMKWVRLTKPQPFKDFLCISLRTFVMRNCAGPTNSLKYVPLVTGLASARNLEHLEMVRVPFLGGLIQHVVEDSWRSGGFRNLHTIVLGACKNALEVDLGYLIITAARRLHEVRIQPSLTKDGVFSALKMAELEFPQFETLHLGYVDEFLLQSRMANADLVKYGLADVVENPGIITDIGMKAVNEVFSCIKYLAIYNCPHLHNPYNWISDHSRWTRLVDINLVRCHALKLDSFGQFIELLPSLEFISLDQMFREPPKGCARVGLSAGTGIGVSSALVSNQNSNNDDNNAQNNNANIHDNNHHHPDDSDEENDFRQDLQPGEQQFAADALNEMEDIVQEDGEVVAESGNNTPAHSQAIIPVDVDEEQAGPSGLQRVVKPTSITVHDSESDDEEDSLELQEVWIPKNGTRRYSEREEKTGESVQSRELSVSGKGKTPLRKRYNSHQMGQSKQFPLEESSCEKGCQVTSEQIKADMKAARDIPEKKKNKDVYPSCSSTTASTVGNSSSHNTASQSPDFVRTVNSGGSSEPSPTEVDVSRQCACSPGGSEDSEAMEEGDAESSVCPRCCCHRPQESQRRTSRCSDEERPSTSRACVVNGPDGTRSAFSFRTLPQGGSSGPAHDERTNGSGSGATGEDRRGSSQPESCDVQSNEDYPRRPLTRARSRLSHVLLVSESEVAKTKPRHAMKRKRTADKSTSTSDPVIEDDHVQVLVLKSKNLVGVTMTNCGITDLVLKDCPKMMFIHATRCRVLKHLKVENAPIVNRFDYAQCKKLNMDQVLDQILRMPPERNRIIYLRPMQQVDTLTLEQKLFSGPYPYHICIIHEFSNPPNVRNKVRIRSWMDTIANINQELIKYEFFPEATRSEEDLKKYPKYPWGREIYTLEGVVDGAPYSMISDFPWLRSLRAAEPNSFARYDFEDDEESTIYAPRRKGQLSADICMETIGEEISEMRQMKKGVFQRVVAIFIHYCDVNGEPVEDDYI
Outline: (§1)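 Extracted peptides in 3% acetonitrile/0.1% formic acid ran on a 50 cm C18 column into an Orbitrap Fusion, with MaxQuant identification and spectral counting.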

ANKRD52 = target: T2, ANKRD52 (human, UniProt Q8NB46 1-1076)
T2 sequence (looked up): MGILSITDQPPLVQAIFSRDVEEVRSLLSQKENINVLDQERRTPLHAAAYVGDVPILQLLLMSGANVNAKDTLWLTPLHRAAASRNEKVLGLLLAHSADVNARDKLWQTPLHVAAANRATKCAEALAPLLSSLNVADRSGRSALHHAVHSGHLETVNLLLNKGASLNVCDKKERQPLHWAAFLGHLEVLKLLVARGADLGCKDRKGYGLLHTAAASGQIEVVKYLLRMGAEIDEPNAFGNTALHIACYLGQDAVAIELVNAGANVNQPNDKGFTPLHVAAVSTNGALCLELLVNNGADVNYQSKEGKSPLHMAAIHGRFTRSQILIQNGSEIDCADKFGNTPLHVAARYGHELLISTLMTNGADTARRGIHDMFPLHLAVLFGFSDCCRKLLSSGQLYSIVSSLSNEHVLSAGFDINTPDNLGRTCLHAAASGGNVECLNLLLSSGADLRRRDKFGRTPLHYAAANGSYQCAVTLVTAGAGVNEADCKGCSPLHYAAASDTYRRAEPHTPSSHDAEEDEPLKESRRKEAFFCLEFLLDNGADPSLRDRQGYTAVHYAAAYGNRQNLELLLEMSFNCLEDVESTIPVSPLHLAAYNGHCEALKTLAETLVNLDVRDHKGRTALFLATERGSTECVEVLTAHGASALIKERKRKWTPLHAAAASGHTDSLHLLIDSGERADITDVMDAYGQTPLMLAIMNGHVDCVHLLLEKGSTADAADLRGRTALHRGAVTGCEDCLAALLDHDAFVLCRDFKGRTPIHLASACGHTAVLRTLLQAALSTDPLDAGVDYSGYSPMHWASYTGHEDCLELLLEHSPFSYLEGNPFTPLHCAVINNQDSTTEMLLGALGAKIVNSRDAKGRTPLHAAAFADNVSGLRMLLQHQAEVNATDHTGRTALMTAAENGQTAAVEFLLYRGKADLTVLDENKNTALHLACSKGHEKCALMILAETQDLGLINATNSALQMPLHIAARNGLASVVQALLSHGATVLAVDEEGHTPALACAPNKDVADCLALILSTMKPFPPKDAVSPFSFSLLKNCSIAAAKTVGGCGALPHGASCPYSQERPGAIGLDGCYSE
Outline: as §1

CDC42BPB = CDC42BPB (human, UniProt Q9Y5S2 1-1711)
Outline: as §1

Measured: binding result

CDC42BPB, sequence (Q9Y5S2 whole entry): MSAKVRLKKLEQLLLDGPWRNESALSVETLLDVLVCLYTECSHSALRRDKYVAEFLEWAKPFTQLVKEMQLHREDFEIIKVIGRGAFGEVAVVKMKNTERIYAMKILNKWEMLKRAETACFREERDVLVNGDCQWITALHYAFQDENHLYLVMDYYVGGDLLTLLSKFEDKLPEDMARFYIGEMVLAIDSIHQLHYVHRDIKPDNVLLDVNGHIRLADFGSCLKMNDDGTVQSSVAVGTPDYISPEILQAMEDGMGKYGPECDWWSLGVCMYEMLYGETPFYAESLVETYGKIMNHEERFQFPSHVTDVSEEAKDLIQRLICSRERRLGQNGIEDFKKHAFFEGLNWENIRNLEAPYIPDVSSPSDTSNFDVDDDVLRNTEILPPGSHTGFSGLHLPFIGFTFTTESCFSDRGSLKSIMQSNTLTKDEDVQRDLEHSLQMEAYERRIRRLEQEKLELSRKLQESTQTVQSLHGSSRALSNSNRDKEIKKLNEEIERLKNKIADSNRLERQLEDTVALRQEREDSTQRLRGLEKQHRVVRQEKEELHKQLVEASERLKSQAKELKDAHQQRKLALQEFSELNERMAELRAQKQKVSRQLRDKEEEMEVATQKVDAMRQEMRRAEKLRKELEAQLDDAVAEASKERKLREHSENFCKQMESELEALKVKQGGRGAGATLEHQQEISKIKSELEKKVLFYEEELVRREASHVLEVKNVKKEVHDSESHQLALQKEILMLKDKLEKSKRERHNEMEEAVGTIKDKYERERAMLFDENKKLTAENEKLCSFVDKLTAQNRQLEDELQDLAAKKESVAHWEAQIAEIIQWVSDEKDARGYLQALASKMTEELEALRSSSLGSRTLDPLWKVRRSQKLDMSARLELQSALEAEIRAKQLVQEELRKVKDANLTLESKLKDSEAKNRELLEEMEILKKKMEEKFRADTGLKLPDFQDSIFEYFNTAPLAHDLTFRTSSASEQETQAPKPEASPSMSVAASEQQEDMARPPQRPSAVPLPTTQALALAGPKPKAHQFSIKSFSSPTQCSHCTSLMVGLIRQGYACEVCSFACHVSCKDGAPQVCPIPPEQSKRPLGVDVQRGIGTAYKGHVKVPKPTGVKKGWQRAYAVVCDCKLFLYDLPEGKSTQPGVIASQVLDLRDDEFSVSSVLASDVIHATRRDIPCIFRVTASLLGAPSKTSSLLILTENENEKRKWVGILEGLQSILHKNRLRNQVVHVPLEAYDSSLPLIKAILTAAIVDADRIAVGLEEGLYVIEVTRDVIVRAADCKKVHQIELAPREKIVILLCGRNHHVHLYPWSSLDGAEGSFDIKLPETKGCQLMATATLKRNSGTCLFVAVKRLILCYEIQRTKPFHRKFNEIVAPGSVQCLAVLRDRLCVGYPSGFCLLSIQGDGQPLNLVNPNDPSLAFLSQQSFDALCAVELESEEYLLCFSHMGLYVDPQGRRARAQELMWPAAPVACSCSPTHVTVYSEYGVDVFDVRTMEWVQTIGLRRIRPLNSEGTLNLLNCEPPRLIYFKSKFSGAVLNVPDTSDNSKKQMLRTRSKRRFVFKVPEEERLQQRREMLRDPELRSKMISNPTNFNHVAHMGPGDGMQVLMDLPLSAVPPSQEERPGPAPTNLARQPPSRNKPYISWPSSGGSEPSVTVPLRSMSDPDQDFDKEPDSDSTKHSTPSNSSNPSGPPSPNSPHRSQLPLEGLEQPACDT

B1: LZTR1 R810W-FLAG (other, human, UniProt Q8N653 1-840, looked up)
chain: MAGPGSTGGQIGAAALAGGARSKVAPSVDFDHSCSDSVEYLTLNFGPFETVHRWRRLPPCDEFVGARRSKHTVVAYKDAIYVFGGDNGKTMLNDLLRFDVKDCSWCRAFTTGTPPAPRYHHSAVVYGSSMFVFGGYTGDIYSNSNLKNKNDLFEYKFATGQWTEWKIEGRLPVARSAHGATVYSDKLWIFAGYDGNARLNDMWTIGLQDRELTCWEEVAQSGEIPPSCCNFPVAVCRDKMFVFSGQSGAKITNNLFQFEFKDKTWTRIPTEHLLRGSPPPPQRRYGHTMVAFDRHLYVFGGAADNTLPNELHCYDVDFQTWEVVQPSSDSEVGGAEVPERACASEEVPTLTYEERVGFKKSRDVFGLDFGTTSAKQPTQPASELPSGRLFHAAAVISDAMYIFGGTVDNNIRSGEMYRFQFSCYPKCTLHEDYGRLWESRQFCDVEFVLGEKEECVQGHVAIVTARSRWLRRKITQARERLAQKLEQEAAPVPREAPGVAAGGARPPLLHVAIREAEARPFEVLMQFLYTDKIKYPRKGHVEDVLLIMDVYKLALSFQLCRLEQLCRQYIEASVDLQNVLVVCESAARLQLSQLKEHCLNFVVKESHFNQVIMMKEFERLSSPLIVEIVRRKQQPPPRTPLDQPVDIGTSLIQDMKAYLEGAGAEFCDITLLLDGHPRPAHKAILAARSSYFEAMFRSFMPEDGQVNISIGEMVPSRQAFESMLRYIYYGEVNMPPEDSLYLFAAPYYYGFYNNRLQAYCKQNLEMNVTVQNVLQILEAADKTQALDMKRHCLHIIVHQFTKVSKLPTLWSLSQQLLLDIIDSLASHISDKQCAELGADI
notes: Stably expressed in U87 cells by lentivirus; also called LZTR1-FLAG-R810W; LZTR1 RW; not shown: FLAG tag
binds: FBX038 | ANKRD52 | CDC42BPB
